Results: the supplement of paper PMC9170038

Test system: MS2 coat protein
Experiment: apparent KD of MS2 coat protein; designed switch direction (-1 OFF switch, 1 ON switch): 1; higher = weaker reporter binding
Procedure, shortened: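 RNA switches sharing common flanks were transcribed by stalled E. coli RNA polymerase on Illumina chips. A doubling series of SNAP-549-labelled MS2 coat protein, from 0.7 or 1.5 nM to 3 µM, was applied in Tris-HCl pH 7.5 buffer with KCl, MgCl2, BSA, DTT, tRNA and Tween-20. Each step lasted 0.8–1.5 h at the bottom of the series and 10–20 min at the top. Normalised cluster fluorescence was curve-fitted, giving apparent KD as the per-design median over clusters.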

[1] = input ligand: microRNA oligo, concentration not stated
[2] = Eterna round: R95, input ligand: microRNA oligo, concentration not stated
[3] = Eterna round: R95, input ligand: FMN 200 uM
[4] = Eterna round: R95, input ligand: none

| Sequence | apparent KD of MS2 coat protein (input ligand: FMN 200 uM) | apparent KD of MS2 coat protein [1] | apparent KD of MS2 coat protein (input ligand: none) | apparent KD of MS2 coat protein [2] | apparent KD of MS2 coat protein [3] | apparent KD of MS2 coat protein [4] |
| --- | --- | --- | --- | --- | --- | --- |
| CGUCGUUUGAUAGGAUAUCGCUAUACAUGAGGAUCACCCAUGUUUACCACGCUGGUUUUUCAUUCCGAGAAGGAUUCUGAUGUU [salish99_SSNG02_r04_021] (Eterna round: R96, puzzle: Same State NG 2) | 34.7 nM | 26 nM | 36.1 nM |  |  |  |
| CGUCGUUUGAUAGGAUAUCGCUUUCCAUGAGGAUCACCCAUGUUUACCACGCUGGUUUUUCUUUCCGAGAAGGAUUCUGAUGUU [salish99_SSNG02_r04_025] (Eterna round: R96, puzzle: Same State NG 2) | 169 nM | 143 nM | 153 nM |  |  |  |
| CUAGCGCAUGCAGGAUAUCUGGUGUAUGCCUCGAGAUAACAUGAGGAUCACCCAUGUCCGCUCAAAGAGAAGGGCAUGCAAAUG [Eternabot solution 8] (Eterna round: R96, puzzle: Same State NG 2) | 1180 nM | 177 nM | 618 nM |  |  |  |
| CUCAAACAUGAGGAUCACCCAUGUGUUGUCAUGGGAGGAUAUCCCAGUUCGGUGACGUCGGGAGAAGGCCUAUGUC [× ×•×ª×• ×ž×“×™× ×” × ×—×ª-15] (puzzle: Same State 1) |  |  |  | 77.7 nM |  |  |
| CUCCGGAUUGACAUGAGGAUCACCCAUGUGCCCUCAUUAAAGUAGGAUAUACCUCGCAGUCGGGAGUAGAAGGACUUUAUGAGU [Eternabot solution 36] (Eterna round: R96, puzzle: Same State NG 3) | 204 nM | 91.1 nM | 213 nM |  |  |  |
| CUGAGCGAUCGAGGAUAUCACGUCGAUUAGACGUGAGAAGGCGAUCAUAACAUGAGGAUCACCCAUGUAUUACAUGAAGCUCAG [SSNG1/4-A2] (Eterna round: R96, puzzle: Same State NG 1) | 17.1 nM | 12.9 nM | 15.8 nM |  |  |  |
| CUGAGCGAUCUAGGAUAUCACGUCGAAUAGACGUGAGAAGGAGAUCAUAACAUGAGGAUCACCCAUGUAUUACAUGAAGCUCAG [SSNG1/6-A1] (Eterna round: R96, puzzle: Same State NG 1) | 13.2 nM | 10.4 nM | 25.4 nM |  |  |  |
| CUGCUCGGGUGAGGAUAUGCCGCCGUUUCGGCUGCAGAAGGUGCUACGUUACAUGAGGAUCACCCAUGUCUCUGUUGUUUCGUC [salish99_SSNG1_r04_967] (Eterna round: R96, puzzle: Same State NG 1) | 74 nM | 41 nM | 57.3 nM |  |  |  |
| CUGCUCGUGUGAGGAUAUGCCGCCGUUUCGGCUGCAGAAGGUGCUACGUUACAUGAGGAUCACCCAUGUCUCUGUUGUUUCGUA [salish99_SSNG1_r04_948] (Eterna round: R96, puzzle: Same State NG 1) | 40.1 nM | 28.8 nM | 35.9 nM |  |  |  |
| GAAAAACAUGAGGAUCACCCAUGUAGAAAUAUGGGAGGAUAUACAAAGUCGAAAGACAAAGUAGAAGGCCUAAAAG [Mat - Same State 1 - Eli mod - D2] (Eterna round: R96, puzzle: Same State 1) |  | 96.8 nM |  |  |  |  |
| GAAAGAGGAAGCGAGGAUAUCGUGAAGAGUACAUGAGGAUCACCCAUGUUGUAGGUAAAGGUAGGCGAGAAGGCGCAGGAGAAGA [JR_SS2_Sub0102] (puzzle: Same State 2) |  |  |  | 23.7 nM | 23.9 nM | 33.2 nM |
| GAAUAGUUGAGAGGAUAUGUAUUAUUGUAGGAUACAGAAGGUUUUAACAUGAGGAUCACCCAUGUAGGACUAUAUAUGUGAAUA [Parity 98 - Jieux - Same State NG 1] (Eterna round: R96, puzzle: Same State NG 1) |  | 11.7 nM |  |  |  |  |
| GAGAGAGGGUGAGGAUAUUGAGUAAUAAUGAUACAAGAAGGCACAGACAUGAGGAUCACCCAUGUGGGAAUAAUCCAGAGAGAG [Parity 6 - Jieux - Same State NG 1] (Eterna round: R96, puzzle: Same State NG 1) | 262 nM | 153 nM | 289 nM |  |  |  |
| GAGCCAGUCCGAGGAUAUUCAACAUGAGGAUCACCCAUGUAGGCUCAGAAAAGAAAAGAGCCUUGGGAGAAGGCGGACUGGCUC [Xeonanisa<<7] (Eterna round: R96, puzzle: Same State NG 2) | 9.61 nM | 9.01 nM | 14.1 nM |  |  |  |
| GAGCCAGUCCGAGGAUAUUCAUAAUUAAAUACAUGAGGAUCACCCAUGUAGGCAAGAGAGCCUUGGGAGAAGGCGGACUGGCUC [Xeonanisa>>2] (Eterna round: R96, puzzle: Same State NG 2) | 12.8 nM | 25 nM | 42.9 nM |  |  |  |
| GAGCCAGUCCGAGGAUAUUCGUAGGAACACAUGAGGAUCACCCAUGUGGGCUCAGAAGAGCCCUGGGAGAAGGCGGGCUGGCUC [SS-NG2-LRO18] (Eterna round: R96, puzzle: Same State NG 2) | 7.53 nM | 8.45 nM | 17.5 nM |  |  |  |
| GAGGAACAGGCCAACAUGAGGAUCACCCAUGUCCUCGCAUUUCAGGAUAUCUGGAAGAAGAAGAAAGAGAAGGGAAGGUGAAGC [AK SSNG3-V2-34.1] (Eterna round: R96, puzzle: Same State NG 3) | 114 nM | 101 nM | 112 nM |  |  |  |
| GAGGAUGAACUACAGGAUAUAUAGCAGAUGACAUGAGGAUCACCCAUGUAAGAGAAAGGAGGGAGAUAGAAGGGUAUGGGAGGUG [JR_SS2_Sub037] (puzzle: Same State 2) |  |  |  | 28.6 nM | 34.4 nM | 27.1 nM |
| GAGGGACAUGAGGAUCACCCAUGUGGAAAAUUUAAAGGAUAUUAGUGUGGGAAAGUAGGGUAAGAAGGUUGAUUGG [JR_SS1_Sub085] (puzzle: Same State 1) |  |  |  | 54.2 nM | 50.2 nM | 91.3 nM |
| GAGUAGGACUUACAGGAUAUAUGGAGGUUGACAUGAGGAUCACCCAUGUCUGAGUUGAGAGGAGGAUAGAAGGGUAUGGGAGGCG [JR_SS2_Sub030] (puzzle: Same State 2) |  |  |  | 16.5 nM | 23.4 nM | 22.4 nM |
| GAGUAGUUAAAAGGAUAUUGAUUAUUGUAGGAUCAAGAAGGUUUUAACAUGAGGAUCACCCAUGUAGGACUAUAAAUGUGAAAA [Parity 93 - Jieux - Same State NG 1] (Eterna round: R96, puzzle: Same State NG 1) |  | 12.5 nM |  |  |  |  |
| GCACAUGAGGAUCACCCAUGUGCGCUUGAUUGUCCAAGCGCACAGGAUAUACCUCCAAAUGGGAGGUAGAAGGGUGAAAAGAAA [Ravema] (Eterna round: R96, puzzle: Same State NG 3) | 2310 nM | 393 nM | 347 nM |  |  |  |
| GCCAACUAAUGAGGAUAUGGCACCUUAUUGGUGCCAGAAGGCAUGUCAAAAGACAUGAGGAUCACCCAUGUAUUAUAGUUGGCA [Mat - Same State NG 1 - JL mod - D73] (Eterna round: R96, puzzle: Same State NG 1) | 25.5 nM | 62.5 nM | 304 nM |  |  |  |
| GCCAUCGCAUGAGGAUAUGGCACCGUUUCGGUGCCAGAAGGCAUGUCGUAAGACAUGAGGAUCACCCAUGUAGUUAAGAUGGCA [JL Fiskers NG1ss - 33 mod 8] (Eterna round: R96, puzzle: Same State NG 1) | 219 nM | 101 nM | 407 nM |  |  |  |
| GCCCAUAGUAUAUGGGUACAAGCUUUUUAACAUGAGGAUCACCCAUGUACUCGUCUUAUGUGCAGUCCGUAGACUGC [JL-shm-2.17 Brourd mod] (puzzle: Sensor for hsa-mir-208a) |  |  |  | 14 nM | 86.4 nM | 82.3 nM |
| GCCGACUAAUGAGGAUAUGGCACCUUAUUGGUGCCAGAAGGCAUGUCAAUUGACAUGAGGAUCACCCAUGUAUUAUAGUUGGCG [salish99_SSNG1_r04_602] (Eterna round: R96, puzzle: Same State NG 1) | 96.5 nM | 177 nM | 449 nM |  |  |  |
| GCCGCGUUUCGCGCCUACAUGAGGAUCACCCAUGUAUGUGGGCAGGAUAUCGUUUGCUUUGCAAACGAGAAGGGCUGUUGUGGC [salish99_SSNG3_R04_010] (Eterna round: R96, puzzle: Same State NG 3) | 19.7 nM | 21.2 nM | 30 nM |  |  |  |
